Results published in patent publication US20240287484.

How the values were obtained:
Conditions in all cases: qPCR; 3 mM MgCl2, 37 C
[1] = system: T1, MG153-39 RT (uncultivated organism (metagenomic))
T1 sequence: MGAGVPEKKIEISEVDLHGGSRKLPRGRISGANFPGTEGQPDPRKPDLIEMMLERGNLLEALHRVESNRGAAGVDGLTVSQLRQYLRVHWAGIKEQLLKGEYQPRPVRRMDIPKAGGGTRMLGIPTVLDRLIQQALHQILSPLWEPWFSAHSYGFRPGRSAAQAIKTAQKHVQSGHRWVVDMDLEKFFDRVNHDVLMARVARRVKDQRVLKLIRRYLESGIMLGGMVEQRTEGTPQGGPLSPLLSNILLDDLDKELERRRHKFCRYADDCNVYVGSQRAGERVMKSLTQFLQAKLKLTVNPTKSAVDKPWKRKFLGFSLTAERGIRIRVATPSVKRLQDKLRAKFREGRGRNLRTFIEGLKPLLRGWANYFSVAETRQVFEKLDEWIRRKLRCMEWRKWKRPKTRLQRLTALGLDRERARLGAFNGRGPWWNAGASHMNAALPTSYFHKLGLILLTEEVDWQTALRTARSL

[2] = system: T2, MG153-56 RT (uncultivated organism (metagenomic))
T2 sequence: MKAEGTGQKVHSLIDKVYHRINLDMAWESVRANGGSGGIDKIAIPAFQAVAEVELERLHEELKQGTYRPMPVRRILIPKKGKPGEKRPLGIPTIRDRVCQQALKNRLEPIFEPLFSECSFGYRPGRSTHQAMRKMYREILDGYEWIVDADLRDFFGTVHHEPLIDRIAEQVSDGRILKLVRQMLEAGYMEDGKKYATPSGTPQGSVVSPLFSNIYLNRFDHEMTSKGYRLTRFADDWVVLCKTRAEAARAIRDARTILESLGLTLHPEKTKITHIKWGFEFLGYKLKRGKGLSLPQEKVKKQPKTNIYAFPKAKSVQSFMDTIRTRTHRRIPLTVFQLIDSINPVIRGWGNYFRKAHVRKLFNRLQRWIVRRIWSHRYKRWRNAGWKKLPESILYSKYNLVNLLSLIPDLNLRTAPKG

[3] = system: T3, MG153-27 RT (uncultivated organism (metagenomic))
T3 sequence: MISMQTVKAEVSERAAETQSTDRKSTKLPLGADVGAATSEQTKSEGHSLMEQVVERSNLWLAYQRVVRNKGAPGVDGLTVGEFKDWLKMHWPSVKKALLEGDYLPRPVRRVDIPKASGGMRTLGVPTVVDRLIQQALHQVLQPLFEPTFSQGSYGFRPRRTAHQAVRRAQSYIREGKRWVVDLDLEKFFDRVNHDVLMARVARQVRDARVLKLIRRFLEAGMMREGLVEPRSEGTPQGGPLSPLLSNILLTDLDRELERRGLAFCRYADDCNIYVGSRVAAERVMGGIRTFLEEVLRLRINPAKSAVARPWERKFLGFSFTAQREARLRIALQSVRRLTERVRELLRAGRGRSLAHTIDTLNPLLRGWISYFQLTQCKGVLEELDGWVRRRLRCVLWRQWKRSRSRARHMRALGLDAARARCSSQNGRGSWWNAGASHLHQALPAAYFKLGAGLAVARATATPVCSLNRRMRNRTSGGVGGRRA

[4] = system: T4, MG153-8 RT (uncultivated organism (metagenomic))
T4 sequence: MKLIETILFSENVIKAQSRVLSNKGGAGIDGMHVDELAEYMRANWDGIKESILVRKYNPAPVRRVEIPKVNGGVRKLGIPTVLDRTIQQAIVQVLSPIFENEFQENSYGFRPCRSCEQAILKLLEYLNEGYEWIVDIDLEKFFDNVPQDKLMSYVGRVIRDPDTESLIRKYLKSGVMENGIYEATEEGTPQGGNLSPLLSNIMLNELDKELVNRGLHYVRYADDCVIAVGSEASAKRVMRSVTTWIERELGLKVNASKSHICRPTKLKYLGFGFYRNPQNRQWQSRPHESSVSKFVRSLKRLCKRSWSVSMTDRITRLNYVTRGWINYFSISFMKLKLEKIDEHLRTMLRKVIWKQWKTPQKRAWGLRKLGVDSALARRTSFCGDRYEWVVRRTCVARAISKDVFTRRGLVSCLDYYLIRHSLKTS

[5] = system: T5, MG153-17 RT (uncultivated organism (metagenomic))
T5 sequence: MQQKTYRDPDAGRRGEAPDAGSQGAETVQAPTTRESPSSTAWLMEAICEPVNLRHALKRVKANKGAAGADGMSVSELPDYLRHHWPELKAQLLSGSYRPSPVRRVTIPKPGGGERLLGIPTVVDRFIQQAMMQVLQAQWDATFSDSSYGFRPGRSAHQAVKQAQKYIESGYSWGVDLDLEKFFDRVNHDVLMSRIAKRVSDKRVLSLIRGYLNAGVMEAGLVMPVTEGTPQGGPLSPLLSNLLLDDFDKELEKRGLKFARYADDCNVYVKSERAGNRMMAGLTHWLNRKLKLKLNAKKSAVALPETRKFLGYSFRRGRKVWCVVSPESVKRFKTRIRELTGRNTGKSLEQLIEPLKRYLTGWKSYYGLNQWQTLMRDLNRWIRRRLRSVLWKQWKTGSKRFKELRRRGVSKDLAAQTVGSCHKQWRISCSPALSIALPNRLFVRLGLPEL

[6] = system: T6, MG153-11 RT (uncultivated organism (metagenomic))
T6 sequence: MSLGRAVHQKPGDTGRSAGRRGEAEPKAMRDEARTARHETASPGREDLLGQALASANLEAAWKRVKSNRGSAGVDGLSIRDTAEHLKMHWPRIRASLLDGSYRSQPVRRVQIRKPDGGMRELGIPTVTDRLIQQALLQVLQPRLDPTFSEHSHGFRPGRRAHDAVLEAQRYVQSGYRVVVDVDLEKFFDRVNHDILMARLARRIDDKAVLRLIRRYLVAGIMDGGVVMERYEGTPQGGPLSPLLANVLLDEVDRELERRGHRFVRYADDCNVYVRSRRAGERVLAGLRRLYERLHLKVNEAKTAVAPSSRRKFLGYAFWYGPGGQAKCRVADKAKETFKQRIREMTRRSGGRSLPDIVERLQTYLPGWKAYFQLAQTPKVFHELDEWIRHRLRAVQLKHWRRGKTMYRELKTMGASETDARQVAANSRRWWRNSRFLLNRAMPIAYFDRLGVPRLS

Measured: activity (fold over background)

200 nt RNA template annealed to DNA primer
> 10: all assays above
